Source: US20090011510A1

Target: intracellular product of the soybean Rps1b gene (soybean)
Assay: cell-based or functional assay

## mature Avr1b (lacking the secretory leader), Phytophthora sojae
  Killing in presence of Rps1b (ratio of GUS spots): 0.22
